The test has as its target Alexa labeled human IgG. Briefly: flow cytometry of E. coli displaying the construct, 300 nM Alexa labeled human IgG; two hour induction; reference CPX display. For orientation: Flow cytometry measures light scatter and fluorescence of single cells or particles in a stream.

The substance “eCPX displaying the mini-Z-domain at the N-terminus” displayed a fold higher display level than from CPX of 3 fold.
